Experimental findings from patent US20070225231A1 are described below.

Like-named read-outs stand apart in the source and are kept apart here. Positions of bridges follow the written chain, without caps; N, C: chain ends. No end group written: not given here.

Test [1] concerns the target peroxidase-anti-peroxidase (PAP) immune complexes (UniProt P00433). Briefly: reverse ELISA: rabbit PAP pre-incubated with soluble MBP; competitor: immobilised MBP.
For test [2] the target is unchanged. Briefly: reverse ELISA: rabbit PAP pre-incubated with soluble histone; competitor: immobilised histone.
Test [3] deals with histone (Sigma). As to the kind of experiment: reverse ELISA: rabbit PAP on histone-coated plate, no inhibitor.
Test [4] has as its target highly purified FcγIIb (UniProt P31994). Briefly: reverse ELISA: PAP on FcγIIb-coated plate, no inhibitor.
In test [5] the target is human C1q (human) (UniProt P02745). Briefly: reverse ELISA: PAP on C1q-coated plate, no inhibitor.
Sequence of human C1q (human) (P02745 23-245 limits assumed, chain 1 of 3): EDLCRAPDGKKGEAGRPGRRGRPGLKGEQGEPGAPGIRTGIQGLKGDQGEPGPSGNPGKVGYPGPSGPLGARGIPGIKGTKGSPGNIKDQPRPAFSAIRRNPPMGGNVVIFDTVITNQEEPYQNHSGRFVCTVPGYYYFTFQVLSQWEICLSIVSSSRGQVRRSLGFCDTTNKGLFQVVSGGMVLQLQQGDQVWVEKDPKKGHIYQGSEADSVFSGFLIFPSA
Sequence of human C1q (human) (P02746 28-253 limits assumed, chain 2 of 3, further chain): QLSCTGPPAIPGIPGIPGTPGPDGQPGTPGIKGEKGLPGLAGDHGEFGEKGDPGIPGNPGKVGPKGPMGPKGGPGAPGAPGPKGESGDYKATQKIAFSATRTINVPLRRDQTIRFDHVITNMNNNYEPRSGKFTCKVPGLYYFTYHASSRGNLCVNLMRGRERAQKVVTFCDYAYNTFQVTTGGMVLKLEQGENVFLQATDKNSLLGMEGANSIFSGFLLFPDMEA
Sequence of human C1q (human) (P02747 29-245 limits assumed, chain 3 of 3, further chain): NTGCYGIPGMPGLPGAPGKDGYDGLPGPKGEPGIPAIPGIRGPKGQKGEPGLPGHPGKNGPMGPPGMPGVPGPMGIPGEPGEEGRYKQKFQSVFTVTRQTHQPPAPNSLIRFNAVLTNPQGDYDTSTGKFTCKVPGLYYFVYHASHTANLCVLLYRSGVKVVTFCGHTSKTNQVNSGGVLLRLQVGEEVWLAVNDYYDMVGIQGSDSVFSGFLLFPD
Test [6] concerns the target highly purified FcγIII. As to the kind of experiment: reverse ELISA: PAP on FcγIII-coated plate, no inhibitor.
Test [7] concerns the target myelin basic protein (MBP) (Sigma). Briefly: reverse ELISA: rabbit PAP on MBP-coated plate, no inhibitor.
For test [8], the target named is human C1q (human) (UniProt P02745). As to the kind of experiment: reverse ELISA: PAP on C1q-coated plate, no inhibitor. The source holds these as a separate data set.
For test [9], the target named is highly purified FcγIIa (UniProt P12318). As to the kind of experiment: reverse ELISA: PAP on FcγIIa-coated plate, no inhibitor.
Sequence of highly purified FcγIIa (P12318 34-217 limits assumed): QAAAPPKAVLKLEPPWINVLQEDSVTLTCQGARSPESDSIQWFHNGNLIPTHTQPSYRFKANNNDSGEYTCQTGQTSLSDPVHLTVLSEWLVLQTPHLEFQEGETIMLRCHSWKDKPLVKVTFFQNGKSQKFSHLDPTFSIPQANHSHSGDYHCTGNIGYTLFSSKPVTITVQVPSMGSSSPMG
Test [10] deals with histone (Sigma). Briefly: reverse ELISA: IgG PAP binding to histones, no inhibitor.
Test [11] deals with whole human IgG4 (human) [IgG part: P01861]. As to the kind of experiment: reverse ELISA: immune complexes on IgG4-coated plate, no inhibitor.
Sequence of whole human IgG4 (human) [IgG part: P01861] (P01861 other isoform, or with tags, fused parts or gaps): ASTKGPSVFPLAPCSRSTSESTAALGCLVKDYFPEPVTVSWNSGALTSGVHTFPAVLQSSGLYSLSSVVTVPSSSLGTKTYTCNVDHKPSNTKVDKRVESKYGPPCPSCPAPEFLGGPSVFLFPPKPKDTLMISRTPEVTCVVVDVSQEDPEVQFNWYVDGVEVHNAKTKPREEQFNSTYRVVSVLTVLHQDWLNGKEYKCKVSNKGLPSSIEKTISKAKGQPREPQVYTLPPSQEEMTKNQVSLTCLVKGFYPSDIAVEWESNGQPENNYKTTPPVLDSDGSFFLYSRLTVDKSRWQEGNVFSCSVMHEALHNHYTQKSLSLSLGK
The target in test [12] is myelin basic protein (MBP) (Sigma). Briefly: reverse ELISA: IgG PAP binding to MBP, no inhibitor.
For test [13], the target named is peroxidase-anti-peroxidase (PAP) immune complexes (UniProt P00433). Briefly: reverse ELISA: rabbit PAP pre-incubated with peptide; competitor: immobilised MBP.
Sequence of peroxidase-anti-peroxidase (PAP) immune complexes (UniProt P00433) (P00433 31-338, one chain of several): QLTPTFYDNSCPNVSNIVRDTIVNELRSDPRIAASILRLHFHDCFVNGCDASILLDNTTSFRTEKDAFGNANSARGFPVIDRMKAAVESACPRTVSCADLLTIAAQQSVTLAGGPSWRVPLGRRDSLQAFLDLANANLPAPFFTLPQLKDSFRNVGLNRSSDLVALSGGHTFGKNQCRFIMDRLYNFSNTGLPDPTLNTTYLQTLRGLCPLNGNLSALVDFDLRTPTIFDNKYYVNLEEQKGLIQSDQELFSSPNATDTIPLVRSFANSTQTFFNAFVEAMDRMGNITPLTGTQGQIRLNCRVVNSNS
Test [14] deals with human monomeric IgG (Research Diagnostics). Briefly: RF test kit: peptide pre-incubated with human monomeric IgG, washed, then RF; competitor: RF.
Test [15] has as its target peroxidase-anti-peroxidase (PAP) immune complexes (UniProt P00433). Briefly: reverse ELISA: immune complexes with peptide; competitor: immobilised IgG4.
The target is the same in test [16]. As to the kind of experiment: reverse ELISA: PAP pre-incubated with peptide; competitor: immobilised RF.
The target is the same in test [17]. Briefly: reverse ELISA: PAP pre-incubated with peptide; competitor: immobilised FcγIIb.
Test [18] shares this target. As to the kind of experiment: reverse ELISA: PAP pre-incubated with peptide; competitor: immobilised FcγIII.
For test [19] the target is unchanged. Briefly: reverse ELISA: rabbit PAP pre-incubated with peptide; competitor: immobilised histone.
Test [20] shares this target. As to the kind of experiment: reverse ELISA: PAP pre-incubated with peptide; competitor: immobilised FcγIIa.
Test [21] has the same target. As to the kind of experiment: reverse ELISA: PAP pre-incubated with peptide, then on C1q-coated plate; competitor: immobilised C1q.
For test [22] the target is unchanged. As to the kind of experiment: reverse ELISA: PAP pre-incubated with peptide; competitor: immobilised C1q.
Test [23] shares this target. As to the kind of experiment: reverse ELISA: rabbit PAP pre-incubated with peptide; competitor: immobilised RF.

Sequence of highly purified FcγIIb (P31994 43-217 limits assumed): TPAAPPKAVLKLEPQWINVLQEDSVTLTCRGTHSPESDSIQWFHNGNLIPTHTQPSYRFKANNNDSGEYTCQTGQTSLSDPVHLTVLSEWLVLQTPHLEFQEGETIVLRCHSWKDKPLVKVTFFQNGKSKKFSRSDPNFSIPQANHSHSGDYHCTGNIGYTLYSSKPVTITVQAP

For myelin basic protein (MBP) (Sigma), in [1], the OD 405 nm was 0.139 OD.
Turning to histone (Sigma), the OD 405 nm in test [2] came out at 0.057 OD.
Take “peroxidase-anti-peroxidase (PAP) immune complexes (from UniProt P00433 31-338)”: the OD 405 nm was found to be 1.27 OD in test [3]; 1.39 OD in test [4]; 2.35 OD in test [5]; 1.59 OD in test [6]; 1.03 OD in test [7]; 0.467 OD in [8]. Besides, the OD 405 nm in [9] stood at 1.6 OD; in test [10], 2.11 OD; in test [11], 0.716 OD; in test [12], 2.34 OD. For the same molecule, the OD 450 nm in test [4], in test [6] and in [9] was 3.6 OD in each case.
With DCAWHLGELAACT (cyclized by a disulfide bond between the two cysteine residues) [… (SEQ ID NO:42)], the OD 405 nm in [13] turned out to be 0.706 OD; in test [14], 1.4 OD; in test [15], 0.557 OD; in [16], 0.622 OD; in [19] it was 0.729 OD. Also, the OD 450 nm in test [17] is 1.07 OD; in test [18], 1.34 OD; in test [20] it was 1.48 OD.
With DCARHLGELVWCT (disulfide 2-12 (inferred)) [… (SEQ ID NO:4)], the OD 405 nm is 0.473 OD in test [13]; 1.23 OD in [14]; 0.096 OD in test [15]; 0.109 OD in [16]; 0.363 OD in test [19]; 0.193 OD in test [21]. Besides, the OD 450 nm in test [17] is 1.95 OD; in test [18], 2.53 OD; in test [20] it was 2.54 OD.
In the case of DCAAHLGELAACT (cyclized by a disulfide bond between the two cysteine residues) [… (SEQ ID NO:40)], the results for the OD 405 nm in [14] and in test [21] were 1.42 OD and 0.458 OD, respectively. For the same molecule, the OD 450 nm is 2.26 OD in test [17], 2.41 OD in test [18] and 2.43 OD in test [20].
On to APPDCARHLGELVWCT (cyclized by a disulfide bond between the two cysteine residues) [… (printed in Table 8 with SEQ ID NO:14)], for which the OD 405 nm in [15] stood at 0.107 OD.
In the case of RCARHLGELVWCT (disulfide 2-12 (inferred)) [… (SEQ ID NO:5)], the OD 405 nm in test [13] amounted to 0.569 OD; in test [14], 1.31 OD; in test [15], 0.191 OD; in test [16] it was 0.152 OD; in [19], 0.359 OD; in test [21], 0.247 OD. Besides, the values for the OD 450 nm in test [17], in [18] and in [20] were 3.28 OD, 3.5 OD and 3.4 OD, respectively.
With DCAFHLGELVWCT (cyclized by a disulfide bond between the two cysteine residues) [… (SEQ ID NO:3)], the OD 405 nm in test [22] worked out at 0.859 OD; in test [14], 0.962 OD; in test [17], 0.51 OD; in test [18], 0.81 OD; in [23] it was 0.267 OD; in [20] it was 0.66 OD.
As for PCARHLGELVWCT (disulfide 2-12 (inferred)) [… (SEQ ID NO:41)], the OD 405 nm turned out to be 0.489 OD in test [13]; 1.32 OD in test [14]; 0.129 OD in test [15]; 0.106 OD in test [16]; 0.444 OD in test [19]; 0.205 OD in test [21]. For the same molecule, the figures for the OD 450 nm in test [17], in test [18] and in test [20] were 1.21 OD, 1.6 OD and 1.15 OD, respectively.
